In paper doi:10.1101/2024.12.16.628697 one finds koff data, which are given here for 1 substance.

The target of this assay is USP1/UAF1 (UniProt O94782). The assay can be described thus: global kinetic fit.
UniProt O94782, sequence (O94782 21-785 G670A/G671A, chain 1 of 2): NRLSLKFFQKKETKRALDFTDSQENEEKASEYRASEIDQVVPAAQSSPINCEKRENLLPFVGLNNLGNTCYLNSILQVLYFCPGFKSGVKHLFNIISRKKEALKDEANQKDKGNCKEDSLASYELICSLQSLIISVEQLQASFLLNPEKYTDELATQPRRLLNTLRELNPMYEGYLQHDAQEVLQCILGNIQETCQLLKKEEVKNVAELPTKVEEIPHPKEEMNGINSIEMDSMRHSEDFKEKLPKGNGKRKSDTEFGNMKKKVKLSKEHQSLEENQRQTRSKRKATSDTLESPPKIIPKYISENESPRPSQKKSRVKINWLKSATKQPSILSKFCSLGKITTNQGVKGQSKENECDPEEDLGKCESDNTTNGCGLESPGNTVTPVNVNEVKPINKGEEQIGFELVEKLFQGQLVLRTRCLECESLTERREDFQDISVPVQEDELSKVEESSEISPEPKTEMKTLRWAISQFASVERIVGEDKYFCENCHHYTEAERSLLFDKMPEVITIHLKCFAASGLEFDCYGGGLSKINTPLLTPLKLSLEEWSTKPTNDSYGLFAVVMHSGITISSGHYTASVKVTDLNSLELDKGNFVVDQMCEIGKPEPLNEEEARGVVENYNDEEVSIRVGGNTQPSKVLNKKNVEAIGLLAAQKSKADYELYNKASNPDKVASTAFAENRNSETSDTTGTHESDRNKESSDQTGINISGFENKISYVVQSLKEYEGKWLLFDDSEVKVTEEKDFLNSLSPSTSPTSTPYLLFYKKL
UniProt O94782, sequence (Q8TAF3 9-677, chain 2 of 2, further chain): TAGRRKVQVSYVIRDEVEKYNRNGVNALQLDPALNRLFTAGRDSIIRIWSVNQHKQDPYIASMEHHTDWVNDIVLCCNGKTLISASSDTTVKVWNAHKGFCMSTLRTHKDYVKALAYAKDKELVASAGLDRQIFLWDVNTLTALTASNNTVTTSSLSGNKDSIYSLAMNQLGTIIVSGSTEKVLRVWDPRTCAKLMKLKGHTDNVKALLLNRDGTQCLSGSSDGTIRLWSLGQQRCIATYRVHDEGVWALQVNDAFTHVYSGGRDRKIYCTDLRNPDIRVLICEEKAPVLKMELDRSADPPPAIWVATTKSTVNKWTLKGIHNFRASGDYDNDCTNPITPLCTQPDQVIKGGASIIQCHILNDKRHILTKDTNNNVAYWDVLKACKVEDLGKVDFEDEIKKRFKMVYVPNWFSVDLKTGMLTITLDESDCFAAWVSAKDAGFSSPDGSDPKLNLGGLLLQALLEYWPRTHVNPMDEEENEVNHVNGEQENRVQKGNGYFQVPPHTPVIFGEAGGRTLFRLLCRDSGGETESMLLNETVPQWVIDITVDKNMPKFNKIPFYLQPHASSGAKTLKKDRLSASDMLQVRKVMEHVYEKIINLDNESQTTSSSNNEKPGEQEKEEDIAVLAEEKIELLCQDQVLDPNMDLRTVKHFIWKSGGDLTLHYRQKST

For orientation: koff means a measure of how fast the partners let go of each other. Turning to “K63-linked diubiquitinated PCNA (K63-PCNA-Ub2) (from UniProt P12004 1-261; P0CG48 1-76; P0CG48 1-76) (complex)”, the koff came out at 1240 s⁻¹.
